PMC12607630
Several values for one entry are separate records, joined by “and”; a condition that tells them apart may be missing. Equal entries are not always repeated.

Biological target: 6×His-SUMO-FtsZ 370-383 (Escherichia coli) (UniProt P0A9A6)
Assay: BLI; 6×His-SUMO fusions of FtsZ or its parts, or SUMO alone (0.5 µM), held on Ni-NTA biosensors, untagged ZapC in solution; Octet-Red96, 30°C, 1× Pol buffer (50 mM HEPES-NaOH pH 6.8, 50 mM KCl, 10 mM MgCl2); apparent Kd from the signal at the end of association against concentration, one-site fit; three repeats with mean (X) and SD

- Kd: 10.2 µM and 8.06 µM and 9.89 µM
Substance: ZapC (untagged) (from UniProt P75862 1-180) (natural protein)
